Results: patent publication US20140220040A1 (ARCA BIOPHARMA, published 2014)

Target: T1, Human LRP6-Fc (R&D Systems), recombinant human LRP6 containing the complete extracellular domain (human, UniProt O75581 20-1370)
T1 construct: Bought protein; also called hLRP6; Fc-antigen; not shown: Fc part of the bought fusion protein
T1 sequence: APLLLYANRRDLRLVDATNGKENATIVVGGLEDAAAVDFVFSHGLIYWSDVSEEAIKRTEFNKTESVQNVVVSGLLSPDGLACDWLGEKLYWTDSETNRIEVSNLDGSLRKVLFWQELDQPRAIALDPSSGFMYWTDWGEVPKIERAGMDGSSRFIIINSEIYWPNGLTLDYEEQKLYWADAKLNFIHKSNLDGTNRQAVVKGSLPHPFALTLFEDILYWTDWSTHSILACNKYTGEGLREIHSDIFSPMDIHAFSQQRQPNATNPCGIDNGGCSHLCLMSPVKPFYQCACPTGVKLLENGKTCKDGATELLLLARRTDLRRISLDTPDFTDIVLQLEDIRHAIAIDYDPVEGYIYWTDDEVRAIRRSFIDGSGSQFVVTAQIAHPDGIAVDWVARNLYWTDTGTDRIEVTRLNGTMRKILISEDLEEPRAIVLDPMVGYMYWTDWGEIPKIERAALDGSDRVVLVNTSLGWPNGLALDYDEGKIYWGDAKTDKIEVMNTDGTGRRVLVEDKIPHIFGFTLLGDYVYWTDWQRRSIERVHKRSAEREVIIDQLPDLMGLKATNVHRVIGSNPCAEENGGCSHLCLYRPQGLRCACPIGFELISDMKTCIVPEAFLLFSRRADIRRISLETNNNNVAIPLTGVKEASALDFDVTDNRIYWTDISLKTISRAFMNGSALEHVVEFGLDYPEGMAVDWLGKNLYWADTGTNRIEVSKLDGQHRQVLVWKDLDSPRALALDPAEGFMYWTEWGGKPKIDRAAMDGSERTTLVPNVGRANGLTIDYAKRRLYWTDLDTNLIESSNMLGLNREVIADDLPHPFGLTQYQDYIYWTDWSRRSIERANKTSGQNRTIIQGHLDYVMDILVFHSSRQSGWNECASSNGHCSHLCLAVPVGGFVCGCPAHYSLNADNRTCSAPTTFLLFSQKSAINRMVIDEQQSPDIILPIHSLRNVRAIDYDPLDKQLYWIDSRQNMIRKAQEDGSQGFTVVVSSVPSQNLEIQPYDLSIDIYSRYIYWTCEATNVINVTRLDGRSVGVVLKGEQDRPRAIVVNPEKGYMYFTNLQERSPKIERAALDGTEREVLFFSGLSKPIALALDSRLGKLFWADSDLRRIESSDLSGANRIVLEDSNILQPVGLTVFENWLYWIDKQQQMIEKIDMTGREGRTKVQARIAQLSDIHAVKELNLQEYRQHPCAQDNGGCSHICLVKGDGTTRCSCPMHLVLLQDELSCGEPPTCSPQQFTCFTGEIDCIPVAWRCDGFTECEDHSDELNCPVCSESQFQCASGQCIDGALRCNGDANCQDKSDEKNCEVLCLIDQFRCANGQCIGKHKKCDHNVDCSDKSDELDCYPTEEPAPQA
Experiment: SPR (BIAcore), mAb captured on anti-mouse chip, Fc-antigen injected, 1:1 model
Description: Kinetic rate constants (kₐ and kd) were determined using surface plasmon resonance, and affinities (KD) were then calculated from the rate constants (kd/kₐ). Surface plasmon resonance was carried out on a BIAcore system (Biacore International AB, Uppsala, Sweden). Each murine anti-LRP6 mAb sample was diluted 100 fold and captured onto an anti-mouse sensor chip surface. The running buffer contained 10 mM HEPES, 150 mM NaCl, 0.005% Tween-20 and 0.1 mg/ml BSA. Following the capturing step, the Fc-antigen was injected at 45 nM as the highest concentration in a 3-fold dilution series. The association and dissociation phases were monitored for 8 and 60 minutes, respectively. The antigen response data were fit into a 1:1 interaction model.

B1: anti-LRP6 monoclonal antibody 498.3 (antibody, V domains shown)
VH: DVKLVESGGGLVRLGGSLKLSCAASGFTFSTYYMSWVRQTPEKRLELVATINTNGGSTYYPDTLKGRFTISRDNAKNTLYLQMSSLRSEDTALYYCARQRNYGVAVDSWGQGTSVTVSS
VL: DIVLTQSPATLSVTPGDSVSLSCRASQSISNNLHWYQQKSHESPRLLIKYASQSISGIPSRFSGSGSGTDFTLSINSVETEDFGMYFCQQTNNWPLTFGAGTKLER
notes: Murine hybridoma mAb, protein G purified; also called VH7/VL7
For B1, the Kd was 0.98 nM, the koff was 5e-05 s⁻¹ and the kon was 50500 M⁻¹ s⁻¹.

B2: anti-LRP6 monoclonal antibody 1115.3 (antibody, V domains shown)
VH: DVKLVESGGGLVKLGGSLRLSCAASGFSFSTSYMSWVRQTPEKRLELVAAINLNGGSTYYSDTVKGRFTISRDNAKNTLYLQMSSLKSEDTAFYYCASELAGYGTPFAYWGQGTLVTVSA
VL: DIVLTQSPATLSVTPGDSVSLSCKASQSISNNLHWYQQKSHESPRLLIKYTSQSISGIPSRFSGSGSGTDFTLTINNVETEDFGMYFCQQSNSWPLTFGAGTKLEV
notes: Murine hybridoma mAb, protein G purified; also called VH16/VL16
B2 was tested, and the Kd was 1.45 nM, the koff was 5.34e-05 s⁻¹ and the kon was 36800 M⁻¹ s⁻¹.

B3: anti-LRP6 monoclonal antibody 620.1 (antibody, V domains shown)
VH: EIQLQQSGPELVKPGASVKVSCKASGYAFTSYNMYWVKQSHGKSLEWIGYIDPYNGGTNYNQKFKGKATLTVDKSSSTAYMHLNSLTSEDSAVYYCARGGMGLRRDYFDFWGQGTTLTVSS
VL: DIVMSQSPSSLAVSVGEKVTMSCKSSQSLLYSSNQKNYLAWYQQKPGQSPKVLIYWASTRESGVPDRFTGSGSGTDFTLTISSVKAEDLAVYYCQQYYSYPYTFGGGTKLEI
notes: Murine hybridoma mAb, protein G purified; also called VH10/VL10
Binder B3 has a Kd of 1.73 nM, a koff of 7.7e-05 s⁻¹ and a kon of 44600 M⁻¹ s⁻¹.

B4: anti-LRP6 monoclonal antibody 421.1 (antibody, V domains shown)
VH: QVQLQQSGPELVKPGASVRISCKASGYTFTTYYIHWLKQRPGQGLEWIGWIFPGNVNTKYNAKFKGKATLTADKSSSTAYMQLSSLTSEDSAVYFCAREELQYYFDYWGQGSTLTVSS
VL: QIVLTQSPAIMSASPGEKVTISCSANSSVRFMFWYQQKPGSSPKPLIYRTSNLASGVPARFSGCGSGTSYSLTISSMEAEDAATYYCQQYHSYPWTFGGGTKLEI
notes: Murine hybridoma mAb, protein G purified; also called VH6/VL6
With B4 the Kd was 3.2 nM, the koff was 0.000114 s⁻¹ and the kon was 35400 M⁻¹ s⁻¹.

B5: anti-LRP6 monoclonal antibody 537.2 (antibody, V domains shown)
VH: DVQLQESGPGLVKPSQSLSLTCSVTGYSITSGYYWNWIRQFPGDKLEWMGHINYDGRDNYNPSLKNRISITRDTSKNQFFLKLNSVTTEDTATYYCAREFGNFPYYFDYWGQGTTLTVSS
VL: QIVLTQSPAIMSASPGEKVTISCSAYSSVRFMFWYQQKPGSSPKPLIYRTSNLASGVSARFSGSGSGTSYSLTISSMEAEDAATYYCQQYHSYPWTFGGGTKLEI
notes: Murine hybridoma mAb, protein G purified; also called VH8/VL8
For B5, the Kd was 0.9 nM, the koff was 3.15e-05 s⁻¹ and the kon was 35200 M⁻¹ s⁻¹.

B6: anti-LRP6 monoclonal antibody 856.6 (antibody, V domains shown)
VH: QVQLQQSGPELVKPGASVRISCKASGYTFTTYYIHWLKQRPGQGLEWIGWIFPGNVNTKYNAKFKGKATLTADKSSSTAYMQLSSLTSEDSAVYFCAREGLQYYFDYWGQGTTLTVSS
VL: QIVLTQSPAIMSASPGEKVTISCSANSSVRFMFWYQQKPGSSPKPLIYRTSNLASGVPARFSGSGSGTSYSLTISSMEAEDAATYYCQQYHSYPWTFGGGTKLEI
notes: Murine hybridoma mAb, protein G purified; also called VH11/VL11
With B6 the Kd was 0.95 nM, the koff was 4.5e-05 s⁻¹ and the kon was 47400 M⁻¹ s⁻¹.

B7: anti-LRP6 monoclonal antibody 1293.11 (antibody, V domains shown)
VH: QVQLQQSGPELVKPGASVRISCKASGYTFTTYYIHWLKQRPGQGLEWIGWIFPGNVNTKYNAKFKGKATLTADKSSSTAYMQLSSLTSEDSAVYFCAREELQYYFDYWGQGSALTVSS
VL: QIVLTQSPAIMSASPGEKVTISCSANSSVRFMFWYQQKPGSSPKPLIYRTSNLASGVPARFSGSGSGTSYSLTISSMEAEDAATYYCQQYHSYPWTFGGGTKLEI
notes: Murine hybridoma mAb, protein G purified; also called VH20/VL20
B7 showed a Kd of 57 nM, a koff of 0.000124 s⁻¹ and a kon of 2200 M⁻¹ s⁻¹.

B8: anti-LRP6 monoclonal antibody 1253.12 (antibody, V domains shown)
VH: QVQLQQSGPELVMPGASVRISCKASGYTFTNYYLHWVKQRPGQGLEWIGWIYPGNVNTKYNEKFKGKASLTADKSSSTAYMQLSSLTSEDSAVYFCAREGLQYYFDYWAQGTTLTVSS
VL: QIVLTQSPAIMSASPGEKVTISCSANSSVRYMFWYQQKPGSFPKPWIYRTSNLASGVPARFSGSGSGTSYSLTISSMEAEDVATYYCQQYHSYPWTFGGGTKLEI
notes: Murine hybridoma mAb, protein G purified; also called VH18/VL18
With B8 the Kd was 2.15 nM, the koff was 7.3e-05 s⁻¹ and the kon was 34000 M⁻¹ s⁻¹.
